The results in this text go back to article PMC3092982, “Zinc Binding to the Tyr402 and His402 Allotypes of Complement Factor H: Possible Implications for Age-Related Macular Degeneration” (Journal of Molecular Biology, 2011).

Changes are numbered by the printed parent chain.

The data set concerns the molecule itself. Put plainly: AUC; sedimentation velocity, SCR-6/8 at 0.3 mg/ml (14.6 μM), Hepes buffer, 20 °C, 50,000 rpm, c(s) analysis; monomer and dimer peaks seen throughout the ZnSO4 titration 0.2-600 μM.

B1: recombinant FH fragment SCR-6/8 Tyr402 (domain or fragment, human)
chain: LKPCDYPDIKHGGLYHENMRRPYFPVAVGKYYSYYCDEHFETPSGSYWDHIHCTQDGWSPAVPCLRKCYFPYLENGYNQNYGRKFVQGKSIDVACHPGYALPKAQTTVTCMENGWSPTPRCIRVKTCSKSSIDIENGFISESQYTYALKEKAKYQCKLGYVTADGETSGSITCGKDGWSAQPTCI
notes: complement factor H, human, SCR domains 6 to 8, Tyr402 allotype; It says that SCR-6/8, unlike SCR-1/5 and SCR-16/20, has no His6-tag; also called SCR-6/8 Tyr402 allotype; source: E. coli BL21 (DE3), pET21ab
In the case of B1, the “stoichiometry N” value came to 2.

B2: recombinant FH fragment SCR-6/8 His402 (domain or fragment, human)
chain: B1 chain with Y81H
notes: complement factor H, human, SCR domains 6 to 8, His402 allotype; It says that SCR-6/8, unlike SCR-1/5 and SCR-16/20, has no His6-tag; PDB 2UWN is a cited crystal structure of SCR-6/8 His402 whose limits may differ from this construct; also called SCR-6/8 His402 allotype; source: E. coli BL21 (DE3)pLysS, pET14b
Consider B2, for which the “stoichiometry N” value is 2.
